# Measurements taken from the supplement of paper PMC9732359.
# ± gives the uncertainty stated by the source.
# Test: protein stability index of a GFP-peptide fusion (yeast GPS) (PSI 1-4); higher = more stable; sorted into four equal gates, so the index is relative within each strain
# Outline: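 The protein stability index of a peptide was calculated by multiplying its read frequency in each gate by that gate's number and adding the products. The peptides were tiled 17-residue stretches of yeast proteins, fused downstream of GFP on a Cherry-expressing plasmid and carried in yeast as a pooled library. Mid-log cultures in leucine-free medium were sorted into four equal gates by GFP/Cherry ratio, and each gate's plasmids were PCR-amplified and Illumina-sequenced.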
Sequence,protein stability index (doa10∆),protein stability index (pdr5∆),protein stability index (san1∆),protein stability index (ubr1∆)
KERSDGKRHIFDVNTLC [CDC53],1.27 ± 0.052,1.76 ± 0.062,1.26 ± 0.13,1.92 ± 0.085
TPAAATSPIDIREKVAK [SNF2],2.75 ± 0.11,2.84 ± 0.11,2.63 ± 0.11,3.01 ± 0.1
NQIADLSGKFSTIPTRE [ROX3],2.98 ± 0.091,2.96 ± 0.093,2.81 ± 0.071,3.23 ± 0.07
ANLLFKKEKLKQENSTL [RPC82],2.15 ± 0.077,2.24 ± 0.067,1.92 ± 0.12,1.93 ± 0.06
YGAYNTQIANAGASPMV [PRE4],2.16 ± 0.1,2.3 ± 0.096,1.92 ± 0.097,1.61 ± 0.063
MAKFLKAGKVAVVVRGR [RPL27A],1.53 ± 0.093,1.67 ± 0.057,1.57 ± 0.14,1.54 ± 0.092
TIGGGLFGNKPTTTTGG [YGR119C/NUP57],3 ± 0.094,3.25 ± 0.21,3.56 ± 0.15,
MFHGAKGPLLIERIGHL [PCI8],2.5 ± 0.22,,,
KRLGPKRANNIRKFFGL [RPS6A],3.52 ± 0.077,3.56 ± 0.071,3.25 ± 0.038,3.46 ± 0.045
DAITVKDVKAWAGKRLW [COR1],3.01 ± 0.069,2.8 ± 0.067,2.87 ± 0.063,2.37 ± 0.044
HRCAIRSGALIKFKKCD [SSN2],2.28 ± 0.096,2.26 ± 0.1,2.77 ± 0.054,2.49 ± 0.11
HVKQCQETCDKLRARLV [SMC2],2.2 ± 0.18,2.74 ± 0.14,2.34 ± 0.11,2.21 ± 0.06
GSLWVEFCDEPSVGVKT [RPB5],2.84 ± 0.054,2.86 ± 0.076,3 ± 0.093,2.92 ± 0.053
GMNNASAGLFGSKPAGG [YGL172W/NUP49],3.23 ± 0.086,3.32 ± 0.086,2.96 ± 0.09,3.23 ± 0.053
QTLSEKEYQCSAVIIDE [YIL149C/MLP2],2.64 ± 0.11,3.03 ± 0.098,3.15 ± 0.082,2.88 ± 0.054
ATAVAHVKAGKGLIKVN [RPS16A],1.66 ± 0.2,1.9 ± 0.12,,1.21 ± 0.24
DDDEIVMPVPNVRSSVL [SKP1],2.42 ± 0.053,2.25 ± 0.058,2.45 ± 0.062,2.48 ± 0.051
QETEGTNRHTLALETVL [SIR3],2.72 ± 0.063,2.57 ± 0.054,2.53 ± 0.06,2.83 ± 0.041
IINKLIHIQSKENYPWE [POP3],2.65 ± 0.067,2.44 ± 0.047,1.81 ± 0.068,2.41 ± 0.045
HELPRYGITHGLTNWAA [RPL5],2.44 ± 0.045,2.42 ± 0.035,2.47 ± 0.048,2.25 ± 0.035
DSTIGNSKVDMKYDIFA [IRR1],2.82 ± 0.071,2.78 ± 0.082,2.71 ± 0.078,2.88 ± 0.06
TKLIQYEHNGRTLEAIT [CSL4],2.22 ± 0.049,2.48 ± 0.044,2.38 ± 0.055,2.29 ± 0.034
ELTDKLSALNSEISSLK [SMC1],3.15 ± 0.11,2.76 ± 0.094,3.02 ± 0.074,2.89 ± 0.076
GIPTDKGPRFRKLTSQE [PRE8],3.14 ± 0.12,3.52 ± 0.18,3.01 ± 0.25,3.46 ± 0.25
SILEHSGIRLIEPELFN [FAS2],2.67 ± 0.068,2.99 ± 0.061,2.76 ± 0.058,2.86 ± 0.039
LGNGVACDPSEIEPILM [RGR1],2.06 ± 0.075,2.19 ± 0.067,3.34 ± 0.071,2.91 ± 0.063
EWFEQNNSEQDQEIVIQ [ISW2],3.04 ± 0.13,3.19 ± 0.14,2.45 ± 0.18,3.25 ± 0.093

Sequence,protein stability index (doa10∆),protein stability index (pdr5∆),protein stability index (san1∆),protein stability index (ubr1∆)
KVSKNSTSFKNPRRLEI [YMR153W/NUP53],2.85 ± 0.059,2.87 ± 0.057,2.88 ± 0.057,2.71 ± 0.032
KTKTSLLPTIKRTICKK [RPR2],3.27 ± 0.11,3.18 ± 0.13,2.49 ± 0.18,3.29 ± 0.13
IALMGQDNKKIYVHVRR [ESC2],2.33 ± 0.081,2.57 ± 0.12,2.47 ± 0.17,2.53 ± 0.068
GNPVNDANLLGAEVLIK [COR1],2.56 ± 0.086,3.02 ± 0.093,2.63 ± 0.075,2.89 ± 0.035
HTKFEVAIGLNGKIWVK [RRP40],2.18 ± 0.084,2.48 ± 0.065,2.39 ± 0.072,2.56 ± 0.055
TTAEPKAKRAKTGSAST [TAF14],3.2 ± 0.077,3.14 ± 0.093,3.34 ± 0.053,3.29 ± 0.053
MAGLSFDNYQRNNFLAE [PUP1],3.61 ± 0.17,3.58 ± 0.1,3.29 ± 0.084,3.39 ± 0.092
LDKFTDGGLFTLFVRDQ [QCR2],2.98 ± 0.093,3.14 ± 0.07,3.19 ± 0.055,3.31 ± 0.054
DAKKARFWSFMKTQRFV [SIR4],2.6 ± 0.096,2.88 ± 0.069,2.67 ± 0.069,2.75 ± 0.066
STKLSRPFDSFGKLLQA [ITC1],2.42 ± 0.054,2.67 ± 0.066,2.35 ± 0.057,2.03 ± 0.063
VPPILIILPLDNATLTE [SSN2],2.97 ± 0.1,2.71 ± 0.11,2.58 ± 0.16,2.51 ± 0.087
FNLLILSLNKRIYDREP [YCG1],2.75 ± 0.11,2.41 ± 0.091,2.22 ± 0.13,2.33 ± 0.045
QEIFDANVQRLKEYQSK [RPL13A],3.06 ± 0.097,3.4 ± 0.15,2.93 ± 0.15,3.27 ± 0.093
HKNERRVLEIQTSLVRM [SKI6],2.99 ± 0.091,2.63 ± 0.078,2.44 ± 0.13,2.96 ± 0.053
DHINWEHIKQDYVASLN [NSL1],3.12 ± 0.069,3.23 ± 0.069,2.72 ± 0.058,2.9 ± 0.056
GSGVDSSKLQLTKKYSF [RRP42],2.67 ± 0.12,2.8 ± 0.062,1.55 ± 0.12,2.83 ± 0.071
GFKWLNKLDEYHGLYTN [LIN1],1.81 ± 0.056,1.79 ± 0.056,1.88 ± 0.056,1.67 ± 0.068
QFINLAGYKKLGLKFDD [QCR7],2.43 ± 0.2,3.61 ± 0.14,,
KYSDILLKKATKPEVAS [CDC53],2.32 ± 0.097,2.23 ± 0.12,2.47 ± 0.15,2.47 ± 0.17
LNKGKKVTSMTPAPKIS [RPL36A],,2.98 ± 0.14,,3.15 ± 0.12
RMSSEEVNSLLLQVNKT [GRR1],3.03 ± 0.16,3.13 ± 0.2,2.96 ± 0.19,2.78 ± 0.16
DEKDYLTNQQPKNLSTP [CSE2],3.04 ± 0.083,2.87 ± 0.081,3.21 ± 0.059,3.27 ± 0.069
SFQKKSNDKVVEWINPS [ISW2],3.12 ± 0.069,3.39 ± 0.072,3.1 ± 0.12,3.19 ± 0.088
GYILEGEELAFYLRRLT [RPS8A],1.26 ± 0.078,1.41 ± 0.07,1.24 ± 0.17,1.31 ± 0.25
NISISTSELGNDDFSEV [BRR2],2.94 ± 0.12,3.19 ± 0.096,2.46 ± 0.078,3.12 ± 0.077
NKKIYQWNKLTSFDIKR [POP6],2.93 ± 0.074,2.95 ± 0.079,2.18 ± 0.2,3.03 ± 0.083
